In the supplement of paper PMC7877785:
± gives the uncertainty stated by the source.

Experiment: self-splicing fitness, log relative to wild type (ln ratio); higher = more splicing; Tetrahymena group I intron in knt gene, E. coli kanamycin selection, DiMSum; sequences stand for … in CUCUCU…GGAGGGAAAAGUUAUCAGGCAUGCACCUGGUAGCUAGUCUUUAAACCAAUAGAUUGCAUCGGUUUAAAAGGCAAGACCGUCAAAUUGCGGGAAAGGGGUCAACAGCCGUUCAGUACCAAGUCUCAGGGGAAACUUUGAGAUGGCCUUGCAAAGGGUAUGGUAAUAAGCUGACGGACAUGGUCCUAACCACGCAGCCAAGUCCUAAGUCAACAGAUCUUCUGUUGAUAUGGAUGCAGUUCACAGACUAAAUGUCGGUCGGGGAAGAUGUAUUCUUCUCAUAAGAUAUAGUCGGACCUCUCCUUAAUGGGAGCUAGCGGAUGAAGUGAUGCAACACUGGAGCCGCUGGGAACUAAUUUGUAUGCGAAAGUAUAUUGAUUAGUUUUGGAGUACUCGUGGUCG
Method in brief: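 DiMSum derived fitness as the error-weighted combination of fold changes across replicates, kanamycin versus no kanamycin, normalised to wild type. E. coli BL21(DE3) held the library, which randomised all eight P1ex-region intron nucleotides within the knt kanamycin-resistance gene on pET-22b(+). Six replicate transformations grew overnight at 37°C or 30°C on LB agar with or without 25 μg/mL kanamycin, also containing 100 μg/mL carbenicillin, 50 μM IPTG and 0.2% rhamnose, and pooled colonies were amplicon-sequenced on an Illumina HiSeq 2500.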

Sequence	self-splicing fitness (ln) (30 °C)	self-splicing fitness (ln) (37 °C)
GGGCAGCAAUAUUACGAUAU	-0.768 ± 0.099	-0.877 ± 0.1
GGGCAGCAAUAUUACGAUCG	-0.913 ± 0.098	0.377 ± 0.15
GGGCAGCAAUAUUACGAUGU	-3.92 ± 0.3	-0.5 ± 0.18
GGGCAGCAAUAUUACGAUUA	-1.27 ± 0.14	-1.63 ± 0.15
GGGCAGCAAUAUUACGCAAA	-1.39 ± 0.099	-0.884 ± 0.11
GGGCAGCAAUAUUACGCAAG	-1.37 ± 0.24	-0.431 ± 0.23
GGGCAGCAAUAUUACGCACG	0.202 ± 0.26	-1.16 ± 0.19
GGGCAGCAAUAUUACGCCCU	-2.78 ± 0.4	–
GGGCAGCAAUAUUACGCCGA	-0.407 ± 0.078	0.467 ± 0.1
GGGCAGCAAUAUUACGCUUU	-0.861 ± 0.057	0.0207 ± 0.075
GGGCAGCAAUAUUACGGAAC	-1.22 ± 0.1	-1.75 ± 0.15
GGGCAGCAAUAUUACGGCAA	-0.705 ± 0.14	-0.742 ± 0.17
GGGCAGCAAUAUUACGGCGU	-1.16 ± 0.12	-0.571 ± 0.12
GGGCAGCAAUAUUACGGGUG	-3.07 ± 0.14	-1.71 ± 0.19
GGGCAGCAAUAUUACGGUCA	0.308 ± 0.069	0.187 ± 0.083
GGGCAGCAAUAUUACGUAAG	-0.581 ± 0.063	0.126 ± 0.096
GGGCAGCAAUAUUACGUGCU	-3.46 ± 0.22	-2.16 ± 0.25
GGGGAGCAAUAUUACGAAAU	-3.38 ± 0.47	-2.37 ± 0.39
GGGGAGCAAUAUUACGAAGG	-2.62 ± 0.41	-1.44 ± 0.39
GGGGAGCAAUAUUACGACAA	-1.55 ± 0.42	–
GGGGAGCAAUAUUACGACUC	-0.891 ± 0.25	-0.405 ± 0.5
GGGGAGCAAUAUUACGAUUA	-2.23 ± 0.23	-1.58 ± 0.22
GGGGAGCAAUAUUACGAUUU	-2.01 ± 0.16	-0.868 ± 0.16
GGGGAGCAAUAUUACGCCGA	-2.05 ± 0.5	–
GGGGAGCAAUAUUACGCCGU	-2.64 ± 0.33	-0.911 ± 0.34
GGGGAGCAAUAUUACGCUUA	-1.04 ± 0.2	-1.1 ± 0.27
GGGGAGCAAUAUUACGGCAC	-1.39 ± 0.18	-1.06 ± 0.3

Sequence	self-splicing fitness (ln) (30 °C)	self-splicing fitness (ln) (37 °C)
GGGGAGCAAUAUUACGGCGU	-1.31 ± 0.12	-1.08 ± 0.15
GGGGAGCAAUAUUACGGGAG	–	-1.53 ± 0.39
GGGGAGCAAUAUUACGGGGU	-3.23 ± 0.3	-2.13 ± 0.43
GGGGAGCAAUAUUACGGUAG	-3.09 ± 0.27	–
GGGGAGCAAUAUUACGUAGC	-2.01 ± 0.24	-1.91 ± 0.36
GGGGAGCAAUAUUACGUAUA	-1.69 ± 0.47	-2.35 ± 0.39
GGGGAGCAAUAUUACGUCGU	-2.77 ± 0.18	-1.63 ± 0.21
GGGGAGCAAUAUUACGUCUA	–	-2.6 ± 0.37
GGGGAGCAAUAUUACGUGAG	-1.74 ± 0.26	-1.36 ± 0.2
GGGGAGCAAUAUUACGUGUG	-3.08 ± 0.27	-1.7 ± 0.21
GGGGAGCAAUAUUACGUUCA	-1.86 ± 0.25	-1.35 ± 0.19
GGGGAGCAAUAUUACGUUCC	–	-2 ± 0.3
GGGGAGCAAUAUUACGUUGA	-3.11 ± 0.26	-2.27 ± 0.24
GGGGAGCAAUAUUACGUUUG	–	-2.43 ± 0.37
GGGUAGCAAUAUUACGAAAU	-1.8 ± 0.11	-0.914 ± 0.11
GGGUAGCAAUAUUACGAAUA	-0.00785 ± 0.18	-0.878 ± 0.18
GGGUAGCAAUAUUACGACAC	-0.676 ± 0.33	-0.155 ± 0.35
GGGUAGCAAUAUUACGAGAU	-2.43 ± 0.19	-1.59 ± 0.21
GGGUAGCAAUAUUACGAGUA	–	0.307 ± 0.22
GGGUAGCAAUAUUACGAGUC	-3.63 ± 0.26	-0.588 ± 0.17
GGGUAGCAAUAUUACGAUGC	-0.816 ± 0.14	-0.295 ± 0.19
GGGUAGCAAUAUUACGCAGC	-2.55 ± 0.13	-0.837 ± 0.12
GGGUAGCAAUAUUACGCGCA	-0.0848 ± 0.13	-0.0359 ± 0.14
GGGUAGCAAUAUUACGCGGA	-2.64 ± 0.27	-1.06 ± 0.13
GGGUAGCAAUAUUACGCGUA	-0.49 ± 0.1	-0.35 ± 0.11
GGGUAGCAAUAUUACGCUAU	-2.86 ± 0.22	-2.98 ± 0.31
GGGUAGCAAUAUUACGCUUC	-2.91 ± 0.25	–

Sequence	self-splicing fitness (ln) (30 °C)	self-splicing fitness (ln) (37 °C)
GGGUAGCAAUAUUACGGACG	-1.74 ± 0.13	-2.1 ± 0.2
GGGUAGCAAUAUUACGGAUC	0.0263 ± 0.12	0.637 ± 0.17
GGGUAGCAAUAUUACGGAUG	-1.19 ± 0.17	-2.61 ± 0.28
GGGUAGCAAUAUUACGGAUU	-0.431 ± 0.19	-0.333 ± 0.23
GGGUAGCAAUAUUACGGCGC	-0.217 ± 0.12	-1.14 ± 0.12
GGGUAGCAAUAUUACGGCUG	-0.592 ± 0.11	-1.05 ± 0.14
GGGUAGCAAUAUUACGGGAA	-3.91 ± 0.42	-1.86 ± 0.27
GGGUAGCAAUAUUACGGGUA	-1.55 ± 0.28	-1.1 ± 0.21
GGGUAGCAAUAUUACGGGUU	-2.7 ± 0.15	-1.27 ± 0.14
GGGUAGCAAUAUUACGGUUA	-1.43 ± 0.14	-0.344 ± 0.12
GGGUAGCAAUAUUACGGUUG	-2.88 ± 0.14	-0.949 ± 0.17
GGGUAGCAAUAUUACGUAAG	-1.46 ± 0.14	-0.429 ± 0.15
GGGUAGCAAUAUUACGUAGC	-0.707 ± 0.15	-0.648 ± 0.16
GGGUAGCAAUAUUACGUCCA	-0.128 ± 0.093	0.376 ± 0.12
GGGUAGCAAUAUUACGUCGU	-0.541 ± 0.086	0.73 ± 0.12
GGGUAGCAAUAUUACGUCUG	-1.21 ± 0.12	-1.15 ± 0.14
GGGUAGCAAUAUUACGUGGU	-2.59 ± 0.13	-2.04 ± 0.17
GGGUAGCAAUAUUACGUGUU	-1.37 ± 0.097	-0.992 ± 0.11
GGGUAGCAAUAUUACGUUGG	-3.28 ± 0.28	-2.14 ± 0.32
GGUAAGCAAUAUUACGACAA	-0.393 ± 0.1	-0.112 ± 0.16
GGUAAGCAAUAUUACGACAU	-0.0747 ± 0.013	-0.0479 ± 0.033
GGUAAGCAAUAUUACGACCA	-1.47 ± 0.17	-0.643 ± 0.21
GGUAAGCAAUAUUACGAGCA	-0.801 ± 0.093	-0.377 ± 0.12
GGUAAGCAAUAUUACGAGGU	-3.61 ± 0.37	-2.22 ± 0.28
GGUAAGCAAUAUUACGAUUC	-0.184 ± 0.14	0.0485 ± 0.14
